{"source": "patent US20120316071A1", "about": "(published 2012)", "key": {"[1]": {"molecular_target": "T1, Recombinant Human DLL4 (delta-like protein 4) (human, UniProt Q9NR61 27-524)", "T1 construct": "Bought recombinant human DLL4 coated on the ELISA plate; also called rHuman DLL4", "assay": "ELISA, DLL4 coated on plate, Fab at 25 nM (2-fold dilution series), absorbance at 450 nm"}, "[2]": {"molecular_target": "T1, Recombinant Human DLL4 (delta-like …)", "assay": "ELISA, DLL4 coated on plate, Fab at 50 nM (2-fold dilution series), absorbance at 450 nm"}, "[3]": {"molecular_target": "T1, Recombinant Human DLL4 (delta-like …)", "assay": "ELISA, DLL4 coated on plate, Fab at 100 nM (2-fold dilution series), absorbance at 450 nm"}, "[4]": {"molecular_target": "T1, Recombinant Human DLL4 (delta-like …)", "assay": "ELISA, DLL4 coated on plate, Fab at 12.5 nM (2-fold dilution series), absorbance at 450 nm"}}}
{"binder": "Fab VH5-51_IGHD5-18*01>3_IGHJ4*01 G100K/G104T G24T/S28R/G35V (KT TRV) & V3-4_IGLJ1*01 (wildtype) (Fab, V domains shown, Fab; Expressed in E. coli with CH1 (plasmid A, His6 and Flag tags) and lambda CL (plasmid E); also called H:KT TRV & L:wt) VH: EVQLVQSGAEVKKPGESLKISCKTSGYRFTSYWIVWVRQMPGKGLEWMGIIYPGDSDTRYSPSFQGQVTISADKSISTAYLQWSSLKASDTAMYYCARRKYSYTYDYFDYWGQGTLVTVSS VL: QTVVTQEPSFSVSPGGTVTLTCGLSSGSVSTSYYPSWYQQTPGQAPRTLIYSTNTRSSGVPDRFSGSILGNKAALTITGAQADDESDYYCVLYMGSGISYVFGTGTKVTVL", "values": [{"measurement": "ELISA signal", "setting": "[1]", "value": 0.26}, {"measurement": "ELISA signal", "setting": "[2]", "value": 0.32}, {"measurement": "ELISA signal", "setting": "[3]", "value": 0.45}, {"measurement": "ELISA signal", "setting": "[4]", "value": 0.23}]}
{"binder": "Fab VH5-51_IGHD5-18*01>3_IGHJ4*01 & V3-4_IGLJ1*01 (parental, wildtype) (Fab, V domains shown, Fab; Expressed in E. coli with CH1 (plasmid A, His6 and Flag tags) and lambda CL (plasmid E); also called Wildtype & Wildtype; parent Hit Fab) VH: EVQLVQSGAEVKKPGESLKISCKGSGYSFTSYWIGWVRQMPGKGLEWMGIIYPGDSDTRYSPSFQGQVTISADKSISTAYLQWSSLKASDTAMYYCARRGYSYGYDYFDYWGQGTLVTVSS VL: QTVVTQEPSFSVSPGGTVTLTCGLSSGSVSTSYYPSWYQQTPGQAPRTLIYSTNTRSSGVPDRFSGSILGNKAALTITGAQADDESDYYCVLYMGSGISYVFGTGTKVTVL", "values": [{"measurement": "ELISA signal", "setting": "[1]", "value": 0.18}, {"measurement": "ELISA signal", "setting": "[2]", "value": 0.16}, {"measurement": "ELISA signal", "setting": "[3]", "value": 0.17}, {"measurement": "ELISA signal", "setting": "[4]", "value": 0.17}]}
{"binder": "Fab VH5-51_IGHD5-18*01>3_IGHJ4*01 G100K & V3-4_IGLJ1*01 (wildtype) (Fab, V domains shown, Fab; Expressed in E. coli with CH1 (plasmid A, His6 and Flag tags) and lambda CL (plasmid E); also called G100K & Wildtype) VH: EVQLVQSGAEVKKPGESLKISCKGSGYSFTSYWIGWVRQMPGKGLEWMGIIYPGDSDTRYSPSFQGQVTISADKSISTAYLQWSSLKASDTAMYYCARRKYSYGYDYFDYWGQGTLVTVSS VL: QTVVTQEPSFSVSPGGTVTLTCGLSSGSVSTSYYPSWYQQTPGQAPRTLIYSTNTRSSGVPDRFSGSILGNKAALTITGAQADDESDYYCVLYMGSGISYVFGTGTKVTVL", "values": [{"measurement": "ELISA signal", "setting": "[1]", "value": 0.18}, {"measurement": "ELISA signal", "setting": "[2]", "value": 0.19}, {"measurement": "ELISA signal", "setting": "[3]", "value": 0.2}, {"measurement": "ELISA signal", "setting": "[4]", "value": 0.19}]}
{"binder": "Fab VH5-51_IGHD5-18*01>3_IGHJ4*01 G100K/G104T (KT) & V3-4_IGLJ1*01 (wildtype) (Fab, V domains shown, Fab; Expressed in E. coli with CH1 (plasmid A, His6 and Flag tags) and lambda CL (plasmid E); also called H:KT & L:wt; KT double mutant) VH: EVQLVQSGAEVKKPGESLKISCKGSGYSFTSYWIGWVRQMPGKGLEWMGIIYPGDSDTRYSPSFQGQVTISADKSISTAYLQWSSLKASDTAMYYCARRKYSYTYDYFDYWGQGTLVTVSS VL: QTVVTQEPSFSVSPGGTVTLTCGLSSGSVSTSYYPSWYQQTPGQAPRTLIYSTNTRSSGVPDRFSGSILGNKAALTITGAQADDESDYYCVLYMGSGISYVFGTGTKVTVL", "values": [{"measurement": "ELISA signal", "setting": "[1]", "value": 0.16}, {"measurement": "ELISA signal", "setting": "[2]", "value": 0.18}, {"measurement": "ELISA signal", "setting": "[3]", "value": 0.18}, {"measurement": "ELISA signal", "setting": "[4]", "value": 0.18}]}
{"binder": "Fab VH5-51_IGHD5-18*01>3_IGHJ4*01 G100K/G104T G24A/S28R/G35V (KT ARV) & V3-4_IGLJ1*01 V91L/S96P S52H (Fab, V domains shown, Fab; Expressed in E. coli with CH1 (plasmid A, His6 and Flag tags) and lambda CL (plasmid E); Fab H:KT TRV & L:LP S52H; also called G100K/G104T G24A/S28R/G35V & V91L/S96P S52H) VH: EVQLVQSGAEVKKPGESLKISCKTSGYRFTSYWIVWVRQMPGKGLEWMGIIYPGDSDTRYSPSFQGQVTISADKSISTAYLQWSSLKASDTAMYYCARRKYSYTYDYFDYWGQGTLVTVSS VL: QTVVTQEPSFSVSPGGTVTLTCGLSSGSVSTSYYPSWYQQTPGQAPRTLIYHTNTRSSGVPDRFSGSILGNKAALTITGAQADDESDYYCLLYMGPGISYVFGTGTKVTVL", "values": [{"measurement": "ELISA signal", "setting": "[1]", "value": 0.73}, {"measurement": "ELISA signal", "setting": "[2]", "value": 0.91}, {"measurement": "ELISA signal", "setting": "[3]", "value": 1.09}, {"measurement": "ELISA signal", "setting": "[4]", "value": 0.5}]}
{"binder": "Fab VH5-51_IGHD5-18*01>3_IGHJ4*01 G100K/G104T G24A/S28R/G35V (KT ARV) & V3-4_IGLJ1*01 V91L/S96P S52I (Fab, V domains shown, Fab; Expressed in E. coli with CH1 (plasmid A, His6 and Flag tags) and lambda CL (plasmid E); also called G100K/G104T G24A/S28R/G35V & V91L/S96P S52I) VH: EVQLVQSGAEVKKPGESLKISCKTSGYRFTSYWIVWVRQMPGKGLEWMGIIYPGDSDTRYSPSFQGQVTISADKSISTAYLQWSSLKASDTAMYYCARRKYSYTYDYFDYWGQGTLVTVSS VL: QTVVTQEPSFSVSPGGTVTLTCGLSSGSVSTSYYPSWYQQTPGQAPRTLIYITNTRSSGVPDRFSGSILGNKAALTITGAQADDESDYYCLLYMGPGISYVFGTGTKVTVL", "values": [{"measurement": "ELISA signal", "setting": "[1]", "value": 0.6}, {"measurement": "ELISA signal", "setting": "[2]", "value": 0.82}, {"measurement": "ELISA signal", "setting": "[3]", "value": 1.04}, {"measurement": "ELISA signal", "setting": "[4]", "value": 0.4}]}
{"binder": "Fab VH5-51_IGHD5-18*01>3_IGHJ4*01 G100K/G104T G24A/S28R/G35V (KT ARV) & V3-4_IGLJ1*01 V91L/S96P S52P (Fab, V domains shown, Fab; Expressed in E. coli with CH1 (plasmid A, His6 and Flag tags) and lambda CL (plasmid E); also called G100K/G104T G24A/S28R/G35V & V91L/S96P S52P) VH: EVQLVQSGAEVKKPGESLKISCKTSGYRFTSYWIVWVRQMPGKGLEWMGIIYPGDSDTRYSPSFQGQVTISADKSISTAYLQWSSLKASDTAMYYCARRKYSYTYDYFDYWGQGTLVTVSS VL: QTVVTQEPSFSVSPGGTVTLTCGLSSGSVSTSYYPSWYQQTPGQAPRTLIYPTNTRSSGVPDRFSGSILGNKAALTITGAQADDESDYYCLLYMGPGISYVFGTGTKVTVL", "values": [{"measurement": "ELISA signal", "setting": "[1]", "value": 0.59}, {"measurement": "ELISA signal", "setting": "[2]", "value": 0.79}, {"measurement": "ELISA signal", "setting": "[3]", "value": 1}, {"measurement": "ELISA signal", "setting": "[4]", "value": 0.43}]}
{"binder": "Fab VH5-51_IGHD5-18*01>3_IGHJ4*01 G100K/G104T G24A/S28R/G35V (KT ARV) & V3-4_IGLJ1*01 V91L/S96P S52V (Fab, V domains shown, Fab; Expressed in E. coli with CH1 (plasmid A, His6 and Flag tags) and lambda CL (plasmid E); The light-chain S52 variants were made on the KT TRV heavy chain (T0104); also called G100K/G104T G24A/S28R/G35V & V91L/S96P S52V) VH: EVQLVQSGAEVKKPGESLKISCKTSGYRFTSYWIVWVRQMPGKGLEWMGIIYPGDSDTRYSPSFQGQVTISADKSISTAYLQWSSLKASDTAMYYCARRKYSYTYDYFDYWGQGTLVTVSS VL: QTVVTQEPSFSVSPGGTVTLTCGLSSGSVSTSYYPSWYQQTPGQAPRTLIYVTNTRSSGVPDRFSGSILGNKAALTITGAQADDESDYYCLLYMGPGISYVFGTGTKVTVL", "values": [{"measurement": "ELISA signal", "setting": "[1]", "value": 0.6}, {"measurement": "ELISA signal", "setting": "[2]", "value": 0.74}, {"measurement": "ELISA signal", "setting": "[3]", "value": 0.95}, {"measurement": "ELISA signal", "setting": "[4]", "value": 0.43}]}
{"binder": "Fab VH5-51_IGHD5-18*01>3_IGHJ4*01 G100K/G104T G24L/S28R/G35V (KT LRV) & V3-4_IGLJ1*01 V91L/S96P S52F (Fab, V domains shown, Fab; Expressed in E. coli with CH1 (plasmid A, His6 and Flag tags) and lambda CL (plasmid E); also called G100K/G104T G24L/S28R/G35V & V91L/S96P S52F) VH: EVQLVQSGAEVKKPGESLKISCKTSGYRFTSYWIVWVRQMPGKGLEWMGIIYPGDSDTRYSPSFQGQVTISADKSISTAYLQWSSLKASDTAMYYCARRKYSYTYDYFDYWGQGTLVTVSS VL: QTVVTQEPSFSVSPGGTVTLTCGLSSGSVSTSYYPSWYQQTPGQAPRTLIYFTNTRSSGVPDRFSGSILGNKAALTITGAQADDESDYYCLLYMGPGISYVFGTGTKVTVL", "values": [{"measurement": "ELISA signal", "setting": "[1]", "value": 0.49}, {"measurement": "ELISA signal", "setting": "[2]", "value": 0.69}, {"measurement": "ELISA signal", "setting": "[3]", "value": 0.99}, {"measurement": "ELISA signal", "setting": "[4]", "value": 0.42}]}
